Test [1] deals with T1, human glucagon receptor (human, UniProt P47871 26-477).
T1 construct: whole, on cells; Used as crude membranes of stably transfected HEK293 cells; also called hGcgR; hGLcgR
Nature of the test: SPA, [125I]-Gcg displacement, hGcgR membranes.

Test [2] has as its target T2, human GLP-1 receptor (human, UniProt P43220 24-463).
T2 construct: whole, on cells; Used as crude membranes of stably transfected HEK293 cells; also called hGLP1R; hGLP-1R
Nature of the test: SPA, [125I]-GLP-1 displacement, hGLP-1R membranes.

Test [3] concerns the target T3, human GIP receptor (human, UniProt P48546 22-466).
T3 construct: whole, on cells; Used as crude membranes of stably transfected CHO cells; also called hGIPR
T3 sequence (looked up): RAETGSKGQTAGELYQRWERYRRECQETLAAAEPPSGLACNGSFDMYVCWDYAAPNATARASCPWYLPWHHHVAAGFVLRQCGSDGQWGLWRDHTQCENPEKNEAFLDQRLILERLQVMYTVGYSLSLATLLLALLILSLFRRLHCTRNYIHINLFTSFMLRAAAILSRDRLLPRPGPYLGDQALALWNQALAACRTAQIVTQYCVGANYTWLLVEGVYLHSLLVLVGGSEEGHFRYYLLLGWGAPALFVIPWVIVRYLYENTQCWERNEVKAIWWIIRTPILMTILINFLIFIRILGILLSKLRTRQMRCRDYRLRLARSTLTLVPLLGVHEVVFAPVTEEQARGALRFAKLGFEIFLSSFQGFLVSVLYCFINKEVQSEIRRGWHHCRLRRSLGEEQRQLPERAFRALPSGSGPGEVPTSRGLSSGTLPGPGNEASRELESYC
Nature of the test: SPA, [125I]-GIP displacement, hGIPR membranes.

Numbered stars: 1 amine (or outer) side, 2 acyl side, 3 side chain; on linkers, the order of the positions; unused ones are H or OH. Square brackets hold non-standard residues; d marks the D form. Side chains are listed from the residue outwards. Ends that are not written are not given here. * marks the point of attachment. C20 diacid = O=C(O)CCCCCCCCCCCCCCCCCCC(=O)*; γGlu = O=C(O)[C@H](CCC(=O)[*:2])N[*:1]; AEEA = NCCOCCOCC(=O)O; Aib = CC(C)(N)C(=O)O

T1 sequence (P47871 26-477): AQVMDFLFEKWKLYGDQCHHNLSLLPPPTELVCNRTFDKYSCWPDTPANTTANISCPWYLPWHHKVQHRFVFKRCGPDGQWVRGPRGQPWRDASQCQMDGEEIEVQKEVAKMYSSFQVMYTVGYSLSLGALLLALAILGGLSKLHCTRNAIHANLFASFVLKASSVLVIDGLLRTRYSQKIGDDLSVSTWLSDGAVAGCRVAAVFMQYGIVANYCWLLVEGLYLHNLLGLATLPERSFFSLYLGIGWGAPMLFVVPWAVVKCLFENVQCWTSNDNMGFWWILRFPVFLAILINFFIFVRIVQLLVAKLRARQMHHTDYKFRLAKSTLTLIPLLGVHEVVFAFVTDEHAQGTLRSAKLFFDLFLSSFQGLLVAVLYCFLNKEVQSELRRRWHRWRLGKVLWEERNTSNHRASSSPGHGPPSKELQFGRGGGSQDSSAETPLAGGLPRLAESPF

B1: Example 45 (peptide)
peptide: Y[Aib]EGTFTSDYSILLDKIAQ[Aib]AFIEYLIEGGPSSGAK([AEEA-AEEA-γGlu-C20 diacid])PPS-NH2
modifications: N-terminus assumed
SMILES: CC[C@H](C)[C@H](NC(=O)[C@H](CCCCN)NC(=O)[C@H](CC(=O)O)NC(=O)[C@H](CC(C)C)NC(=O)[C@H](CC(C)C)NC(=O)[C@@H](NC(=O)[C@H](CO)NC(=O)[C@H](Cc1ccc(O)cc1)NC(=O)[C@H](CC(=O)O)NC(=O)[C@H](CO)NC(=O)[C@@H](NC(=O)[C@H](Cc1ccccc1)NC(=O)[C@@H](NC(=O)CNC(=O)[C@H](CCC(=O)O)NC(=O)C(C)(C)NC(=O)[C@@H](N)Cc1ccc(O)cc1)[C@@H](C)O)[C@@H](C)O)[C@@H](C)CC)C(=O)N[C@@H](C)C(=O)N[C@@H](CCC(N)=O)C(=O)NC(C)(C)C(=O)N[C@@H](C)C(=O)N[C@@H](Cc1ccccc1)C(=O)N[C@H](C(=O)N[C@@H](CCC(=O)O)C(=O)N[C@@H](Cc1ccc(O)cc1)C(=O)N[C@@H](CC(C)C)C(=O)N[C@H](C(=O)N[C@@H](CCC(=O)O)C(=O)NCC(=O)NCC(=O)N1CCC[C@H]1C(=O)N[C@@H](CO)C(=O)N[C@@H](CO)C(=O)NCC(=O)N[C@@H](C)C(=O)N[C@@H](CCCCNC(=O)COCCOCCNC(=O)COCCOCCNC(=O)CC[C@H](NC(=O)CCCCCCCCCCCCCCCCCCC(=O)O)C(=O)O)C(=O)N1CCC[C@H]1C(=O)N1CCC[C@H]1C(=O)N[C@@H](CO)C(N)=O)[C@@H](C)CC)[C@@H](C)CC
As usually defined, the Ki is a measure of affinity in units of concentration, obtained from inhibition or displacement. A lower Ki goes with a stronger hold on the target. As for B1, the inhibition constant Ki was 11.1 nM in test [1], 5.65 nM in test [2] and 0.0463 nM in test [3].

B2: Example 46 (peptide)
peptide: Y[Aib]EGTFTSDYSILLDKIAQ[Aib]AFIEYLIEGGPSSGAPK([AEEA-AEEA-γGlu-C20 diacid])PS-NH2
modifications: N-terminus assumed
SMILES: CC[C@H](C)[C@H](NC(=O)[C@H](CCCCN)NC(=O)[C@H](CC(=O)O)NC(=O)[C@H](CC(C)C)NC(=O)[C@H](CC(C)C)NC(=O)[C@@H](NC(=O)[C@H](CO)NC(=O)[C@H](Cc1ccc(O)cc1)NC(=O)[C@H](CC(=O)O)NC(=O)[C@H](CO)NC(=O)[C@@H](NC(=O)[C@H](Cc1ccccc1)NC(=O)[C@@H](NC(=O)CNC(=O)[C@H](CCC(=O)O)NC(=O)C(C)(C)NC(=O)[C@@H](N)Cc1ccc(O)cc1)[C@@H](C)O)[C@@H](C)O)[C@@H](C)CC)C(=O)N[C@@H](C)C(=O)N[C@@H](CCC(N)=O)C(=O)NC(C)(C)C(=O)N[C@@H](C)C(=O)N[C@@H](Cc1ccccc1)C(=O)N[C@H](C(=O)N[C@@H](CCC(=O)O)C(=O)N[C@@H](Cc1ccc(O)cc1)C(=O)N[C@@H](CC(C)C)C(=O)N[C@H](C(=O)N[C@@H](CCC(=O)O)C(=O)NCC(=O)NCC(=O)N1CCC[C@H]1C(=O)N[C@@H](CO)C(=O)N[C@@H](CO)C(=O)NCC(=O)N[C@@H](C)C(=O)N1CCC[C@H]1C(=O)N[C@@H](CCCCNC(=O)COCCOCCNC(=O)COCCOCCNC(=O)CC[C@H](NC(=O)CCCCCCCCCCCCCCCCCCC(=O)O)C(=O)O)C(=O)N1CCC[C@H]1C(=O)N[C@@H](CO)C(N)=O)[C@@H](C)CC)[C@@H](C)CC
Turning to B2, the inhibition constant Ki was found to be 133 nM in test [1], 13.4 nM in test [2] and 0.0852 nM in test [3].
